Patent US20050079613A1, “Downregulation of cell surface glycoproteins by a family of human ubiquitin ligases” (Oregon Health & Science University, priority 2002, published 2005)
Entries after “also recorded” stand apart in the source; their conditions may differ.

What was measured:
transferrin receptor = test: Surface expression of transferrin receptor on transfected HeLa cells, flow cytometry; assay type: cell-based, human; settings: HeLa cells transfected with MARCH plasmid and GFP, 24 h post-transfection
Procedure: (§1) Flow cytometry. Cells were removed from tissue culture dishes with 0.05% Trypsin-EDTA (Invitrogen), washed with ice-cold PBS, and incubated with appropriate antibody for 30 minutes at 4° C. The cells were washed with ice-cold PBS and either resuspended in ice-cold PBS or incubated with PE-conjugated anti-mouse secondary antibody (DAKO) and washed again before analysis with a BD Biosciences (San Jose, Calif.) FACScalibur flow cytometer.
Cells were transfected with appropriate plasmids as well as GFP to track transfection efficiency. […]
The ability to downregulate MHC I is common to KSHV-K3, KSHV-K5, MHV68-K3 and MV-M153R (Coscoy and Ganem, 2000, supra; Guerin et al., 2002, supra; Ishido et al., 2000b supra; Stevenson et al., 2000, supra). […] Since only low copy numbers were detected in HeLa cells for transcripts corresponding to each of the MARCH-proteins (FIG. 7C, and data not shown), HeLa cells were transfected with expression plasmids for MARCH-I, II, III, IV, V and VIII. Surface expression of selected glycoproteins was monitored upon transfection. […] Surface expression of the respective markers was analyzed by flow cytometry. […]

HLA class I (MHC I) = test: Surface expression of endogenous MHC I on transfected HeLa cells, flow cytometry; assay type: cell-based, human; settings: HeLa cells transfected with MARCH plasmid and GFP, 24 h post-transfection
Procedure: as §1
The ability to downregulate MHC I is common to KSHV-K3, KSHV-K5, MHV68-K3 and MV-M153R (Coscoy and Ganem, 2000, supra; Guerin et al., 2002, supra; Ishido et al., 2000b supra; Stevenson et al., 2000, supra). Additional substrates are ICAM-1 and B7.2 (but not B7.1) for KSHV-K5, as well as CD95 and CD4 for M153R (Coscoy and Ganem, 2001, supra; Guerin et al., 2002, supra; Ishido et al., 2000a, supra; Mansouri et al., 2003, supra). Since only low copy numbers were detected in HeLa cells for transcripts corresponding to each of the MARCH-proteins (FIG. 7C, and data not shown), HeLa cells were transfected with expression plasmids for MARCH-I, II, III, IV, V and VIII. Surface expression of selected glycoproteins was monitored upon transfection. The following known substrates for viral K3-family members were tested: Fas (CD95) and HLA class I (MHC I), both of which are endogenously expressed in HeLa cells, as well as transfected HLA-A2.1 or CD4. […] Surface expression of the respective markers was analyzed by flow cytometry. GFP was used to identify transfected cells.
With regards to whether MHC I downregulation by MARCH-IV was only observed at very high expression levels, since the viral immune evasion genes seem to be dedicated to MHC I downregulation, MHC I expression was compared at different expression levels of MARCH-IV or KSHV-K5 by taking advantage of the tetracycline-regulatable system to partially express either protein (Gossen, M. and H. Bujard, Proc. Natl. Acad. Sci. USA 89:5547-5551, 1992). Tet-off HeLa cells were transfected with either MARCH-IV or with KSHV-K5 in the presence of increasing amounts of tetracycline to shut off transcription. […]

ubiquitin = test: In vitro ubiquitination assay with GST-fused RING-CH (PHD) domains, E1, E2 panel, anti-ubiquitin immunoblot; assay type: biochemical; settings: for ubiquitin ligase activity with UbCH5a: E2 = UbCH5a; for ubiquitin ligase activity with MmUbc6: E2 = murine MmUbc6
Procedure: Ubiquitination assay. UbCH2 and UbCH3 were obtained from Boston Biochem. (His)6-UbCH5a and GST fusion proteins were expressed in BL21-DE3 cells (Stratagene) and BL21 cells (Amersham), respectively, and purified as previously described (Boutell, C., S. Sadis and R. D. Everett, J. Virol. 76:841-850, 2002; Tiwari, S. and A. M. Weissman, J. Biol. Chem. 276:16193-16200, 2001). Purified E3 proteins were stored at 4° C., and E2 proteins were stored at −80° C. In vitro reaction mixtures (20 μl total) included: 50 nM rabbit E1 (Boston Biochem), 28 μM Ubiquitin, 5 mM ATP, 50 mM Tris-HCl pH 7.5, 50 mM NaCl, and 2 mM DTT. E2 enzymes were used at concentrations varying from 0.1 to 2.3 μM, and E3 concentrations ranged from 3 to 30 μM. After 90 minutes of incubation at 30° C., reactions were stopped by boiling in SDS sample buffer. Samples were electrophoresed through 12% polyacrylamide SDS gels and blotted using anti-ubiquitin mouse antibody, P4D1 (Santa Cruz Biotech).
In vitro reaction mixtures (20 μl total) included: 50 nM rabbit E1 (Boston Biochem), 28 μM Ubiquitin, 10 mM ATP, 50 mM Tris-HCl pH 7.5, 50 mM NaCl, and 2 mM DTT. E2 enzymes were used at concentrations varying from 0.7 to 2.3 μM, and E3 concentrations ranged from 3 to 25 μM. After 90 minutes of incubation at 30° C., reactions were stopped by addition of 4×reducing sample buffer. Samples were electrophoresed through 12% SDS gels and blotted using anti-ubiquitin mouse antibody (Santa Cruz Biotech).
To examine if the RING-CH domains of MARCH-I and MARCH-II would act as ubiquitin ligases in vitro, DNA fragments encoding the amino-terminal RING-CH-domain of both proteins were fused to Glutathione-S-transferase. The resulting constructs were sequence confirmed and expression of GST-MARCH protein verified by immunoblot. The GST-fusion protein was expressed and purified from E. coli cultures using Glutathione-columns. The ICP0-RING-domain was also purified, in parallel with the MARCH-I and MARCH-II constructs. A panel of E2 enzymes was either purchased from commercial sources or purified either by nickel-chelate chromatography or on glutathione columns. All E2-enzymes formed mercapto-ethanol-sensisitve complexes with ubiquitin thus showing ubiquitin conjugating activity. Purified ubiquitin and E1 was obtained from commercial sources.
To examine if the RING-CH domains of MARCH proteins act as ubiquitin ligases in vitro, a DNA fragment encoding the amino-terminal RING-CH-domains of MARCH-I, II, IV and VIII were fused to Glutathione-S-transferase (GST) for bacterial expression. The GST-fusion proteins were purified from E. coli cultures using Glutathione-sepharose-columns. Approximately thirty E2 proteins are found in the human genome compared to only one E1 enzyme (Pickart, 2001, supra). […] The specificity and selectivity of E3s with respect to E2s, however, is not well characterized. To cover a spectrum of E2s, a panel of E2 enzymes (Mansouri et al., 2003, supra) was acquired. The various E2 enzymes were incubated with or without the RING-CH-GST fusions in the presence of ubiquitin, ATP, E1. The formation of multiubiquitin-adducts was examined by immunoblotting with antibodies against ubiquitin.

B1: MARCH-I: human membrane-associated RING-CH transmembrane ubiquitin ligase, SEQ ID NOS:39 and 54; expressed by transfection or as GST-RING-CH domain (protein, listed as Homo sapiens)
chain: MTSSHVCCNFLNMWKKSKISTMYYLNQDAKLSNLFLQASSPTTGTAPRSQSRLSVCPSTQDICRICHCEGDEESPLITPCRCTGTLRFVHQSCLHQWIKSSDTRCCELCKYDFIMETKLKPLRKWEKLQMTTSERRKIFCSVTFHVIAITCVVWSLYVLIDRTAEEIKQGNDNGVLEWPFWTKLVVVAIGFTGGLVFMYVQCKVYVQLWRRLKAYNRVIFVQNCPDTAKKLEKNFSCNVNTDIKDAVVVPVPQTGANSLPSAEGGPPEVVSV
Question: What does the source list for B1?
Answer: surface expression of transferrin receptor (TfR) (transferrin receptor): reduced the surface levels of transferring receptor; also recorded: Some reduction; also recorded: strong downregulation; surface expression of MHC I (HLA class I (MHC I)): no effect; surface expression of MHC I (HLA class I (MHC I); listed as MARCH I): No significant MHC I downregulation; ubiquitin ligase activity with UbCH5a (ubiquitin): more active; ubiquitin ligase activity with MmUbc6 (ubiquitin): only active with MmUbc6; formation of high molecular weight ubiquitinated complexes with the E2 enzymes tested (ubiquitin; GST-RING-CH fusion, E2 panel overall): less active with most E2 enzymes tested

B2: full-length MARCH-IV: MARCH-IV full length, which contains an N-terminal extension of 63 amino acids (protein)
chain: WYCYGLCAPAPQMLRHQGLLKCRCRMLFNDLKVFLLRRPPQAPLPMHGDPQPPGLAANNTLPALGAGGWAGWRGPREVVGREPPPVPPPPPLPPSSVEDDWGGPATEPPASLLSSASSDDFCKEKTEDRYSLGSSLDSGMRTPLCRICFQGPEQGELLSPCRCDGSVKCTHQPCLIKWISERGCWSCELCYYKYHVIAISTKNPLQWQAISLTVIEKVQVAAAILGSLFLIASISWLIWSTFSPSARWQRQDLLFQICYGMYGFMDVVCIGLIIHEGPSVYRIFKRWQAVNQQWKVLNYDKTKDLEDQKAGGRTNPRTSSSTQANIPSSEEETAGTPAPEQGPAQAAGHPSGPLSHHHCAYTILHILSHLRPHEQRSPPGSSRELVMRVTTV
Question: For B2, which “surface expression of MHC I” value (HLA class I (MHC I)) is on record?
Answer: The value was “downregulates MHC I”.

B3: ICPO: purified RING domain (amino acids 1-241) of herpes simplex ICP0 as GST fusion, positive control (protein)
chain: MEPRPGASTRRPEGRPQREPAPDVWVFPCDRDLPDSSDSEAETEVGGRGDADHHDDDSASEADSTDTELFETGLLGPQGVDGGAVSGGSPPREEDPGSCGGAPPREDGGSDEGDVCAVCTDEIAPHLRCDTFPCMHRFCIPCMKTWMQLRNTCPLCNAKLVYLIVGVTPSGSFSTIPIVNDPQTRMEAEEAVRAGTAVDFIWTGNQRFAPRYLTLGGHTVRALSPTHPEPTTDEDDDDLDD
modifications: left off: a dimerising Fc or GST
notes: purified RING domain (amino acids 1-241) of herpes simplex ICP0 as GST fusion, positive control
Question: How did the “ubiquitin ligase activity with UbCH5a” value (ubiquitin) turn out when B3 was run?
Answer: The value was “promoted the formation of high-molecular weight complexes”.

Question: What about the “ubiquitin ligase activity with MmUbc6” value (ubiquitin) of the same molecule?
Answer: Its value is “some activity”.
